The values that follow come from patent US20230034768A1 (BIOSION, published 2023).

In test [1] the target is T1, biotin-labeled human RANKL-Fc protein (prepared in house, SEQ ID NO.: 40) (human, biotin-labeled (sites not given)).
T1 construct: also called RANKL-Fc-biotin
In words: competitive ELISA: antibody blocks biotin-labeled human RANKL-Fc binding to coated benchmark denosumab. (An ELISA detects its analyte on a solid surface through an enzyme-linked reagent.)

Test [2] has as its target T1, biotin-labeled human RANKL-Fc protein …. Briefly: capture ELISA: captured antibody, biotin-labeled human RANKL-Fc, OD(450-630). The procedure: (§1) Plates were washed once with wash buffer (PBS+0.05% v/v Tween-20, PBST) and then blocked with 200 μl/well blocking buffer (5% w/v non-fatty milk in PBST) for 2 hours at 37° C. […] After a final wash, plates were incubated with 100 μl/well ELISA substrate TMB (Innoreagents, Cat #TMB-S-002) at room temperature. The reaction was stopped in 3-10 minutes with 50 μl/well 1M H₂SO₄, and the absorbance of each well was read on a microplate reader using dual wavelengths mode with 450 nm for TMB and 630 nm as the reference wavelength. The OD (450-630) values were plotted against antibody concentration. Data were analyzed using Graphpad Prism software and EC₅₀ values were reported.
(§2) Cell supernatants were harvested after six days in shaking flasks, spun down to pellet cells, and then chimeric antibodies were purified from cell supernatants as described above. The purified antibodies were tested in the capture ELISA, competitive ELISA assay and Octet affinity test following the protocols in the foregoing Examples.

The target in test [3] is T2, human RANKL-his protein (prepared in-house with SEQ ID NO: 43) (human, UniProt O14788 136-317).
T2 construct: also called recombinant human RANKL-his
T2 chain: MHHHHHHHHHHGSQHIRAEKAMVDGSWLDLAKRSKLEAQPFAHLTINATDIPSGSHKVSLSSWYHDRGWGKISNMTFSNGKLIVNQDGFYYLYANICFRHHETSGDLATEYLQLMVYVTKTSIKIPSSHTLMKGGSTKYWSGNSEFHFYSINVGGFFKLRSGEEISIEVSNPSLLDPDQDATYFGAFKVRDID
Briefly: Octet BLI, antibody captured, human RANKL-his in solution. The procedure:
(§3) Briefly, AHC/AMC biosensors (anti-human/anti-mouse IgG Fc capture, ForteBio) were presoaked with 10 mM glycine (pH 1.5) for 3 seconds, and then dipped in a well with running buffer (0.5% w/v BSA in PBST) for 3 seconds, the soaking and dipping steps were repeated for three times. […] A new baseline was run for 180 seconds in another well with HBS-EP⁺. […] Finally, sensors were presoaked with 10 mM glycine (pH 1.5) for 3 seconds, and then dipped in a well with running buffer for 3 seconds, the soaking and dipping steps repeated for three times. The association and dissociation curves were fit to a 1:1 Langmuir binding model using Octet evaluation software.
as §2
In general terms: In BLI a coated tip is dipped into the sample, and binding shifts an interference pattern.

The target in test [4] is T1, biotin-labeled human RANKL-Fc protein …. In words: competitive ELISA: antibody blocks biotin-labeled human RANKL-Fc binding to coated human RANK-Fc.
Test [5] deals with T2, human RANKL-his protein (prepared …). In words: Octet BLI, antibody from cell supernatant captured, human RANKL-his in solution. The procedure: as §3
The chimeric antibody when tested was in HBS-EP⁺ at 5 μg/ml concentration.

For test [6] the target is unchanged. Briefly: Biacore T200 SPR, antibody captured by anti-human IgG, human RANKL-his in flow, 1:1 fit. The procedure:
(§4) Briefly, goat anti-human IgG (GE healthcare, Cat #BR100839, Human Antibody Capture Kit) was covalently linked to a CM5 chip (carboxy methyl dextran coated chip from GE healthcare #BR10030) via primary amines, using a standard amine coupling kit provided by Biacore. Un-reacted moieties on the biosensor surface were blocked with ethanolamine. […] The antigen-antibody association kinetics was followed for 2 minutes and the dissociation kinetics was followed for 10 minutes. The association and dissociation curves were fit to a 1:1 Langmuir binding model using BIAcore evaluation software.

Test [7] deals with T3, Recombinant human RANKL-his protein (R&D, Cat #6449-TEC-010) (human, UniProt O14788 140-317, limits assumed).
T3 sequence (looked up): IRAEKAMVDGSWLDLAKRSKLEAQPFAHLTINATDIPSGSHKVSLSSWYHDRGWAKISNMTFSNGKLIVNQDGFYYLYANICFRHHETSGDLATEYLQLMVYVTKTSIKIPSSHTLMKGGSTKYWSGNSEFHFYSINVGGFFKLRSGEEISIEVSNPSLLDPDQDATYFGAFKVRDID
In words: cell-based or functional assay.

The target of test [8] is T1, biotin-labeled human RANKL-Fc protein …. Briefly: competitive ELISA: antibody blocks biotin-labeled human RANKL-Fc binding to coated human RANK-Fc. The procedure:
Briefly, human RANK-Fc proteins (prepared in house, SEQ ID NO.: 41) were coated on 96-well micro plates at 2.0 μg/mL in PBS, 100 μl/well, and incubated overnight at 4° C. The next day, plates were washed with wash buffer (PBS+0.05% w/v Tween-20, PBST), and blocked with 5% w/v non-fatty milk in PBST, 200 μl/well, for 2 hours at 37° C.
Plates were washed 4 times using wash buffer, and added and incubated with 100 μl/well of streptavidin conjugated HRP (1:10000 dilution in PBST buffer, Jackson ImmunoResearch Laboratories, Inc., Cat #016-030-084) for 40 minutes at 37° C. Plates were washed again using wash buffer. Finally, TMB was added and the reaction was stopped using 1M H₂SO₄, and the absorbance of each well was read on a microplate reader using dual wavelengths mode with 450 nm for TMB and 630 nm as the reference wavelength. The OD (450-630) values were plotted against antibody concentration. Data were analyzed using Graphpad Prism software and IC₅₀ values were reported.
This is another data set of the same source.

Test [9] shares this target. Briefly: capture ELISA: captured antibody, biotin-labeled human RANKL-Fc, OD(450-630). The procedure:
as §1
For the capture ELISA, 96-well micro plates were coated with 2 μg/ml goat anti-human IgG (AffiniPure Goat Anti-Human IgG, F(ab′)₂ fragment specific, Jackson Immunoresearch, Cat #109-005-097) instead of AffiniPure Goat Anti-Mouse IgG, Fcγ fragment specific, 100 μl/well.
The source holds these as a separate data set.

Test [10] concerns the target T3, Recombinant human RANKL-his protein …. In words: cell-based or functional assay. This is another data set of the same source.
Test [11] has as its target T4, cynomolgus monkey RANKL-his protein (prepared in-house with SEQ ID NO.:42) (cynomolgus monkey, UniProt O14788 136-317 (human entry), limits assumed).
T4 construct: also called Cynomolgus RANKL
T4 chain: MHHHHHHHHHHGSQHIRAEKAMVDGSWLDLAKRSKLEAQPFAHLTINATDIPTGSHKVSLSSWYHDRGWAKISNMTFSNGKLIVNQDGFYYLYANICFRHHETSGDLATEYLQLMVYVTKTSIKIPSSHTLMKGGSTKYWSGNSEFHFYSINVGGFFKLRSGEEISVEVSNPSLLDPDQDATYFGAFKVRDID
In words: Biacore T200 SPR, antibody captured by anti-human IgG, cynomolgus RANKL-his in flow, 1:1 fit. The procedure: as §4
Background: In SPR one partner is held on a chip, and binding of the other changes the refractive index at the surface.

Test [12] deals with T1, biotin-labeled human RANKL-Fc protein …. Briefly: competitive ELISA: antibody blocks biotin-labeled human RANKL-Fc binding to coated benchmark denosumab. The source holds these as a separate data set.

Like-named read-outs stand apart in the source and are kept apart here.

B1: Chimeric B1A8 (antibody, human IgG2, kappa, V domains shown)
VH: EVQLVESGGDLVKPGGSLKLSCAASGFTFSRYGMSWVRQTPDKRLEWVASISSGGTYTSYPDSVQGRFTITRDSAKNTLYLQMSSLKSEDTAMYYCARRNFITSATDCYFDVWGAGTTVTVSS
VL: DTVLTQSPATLSVTPGASVSLSCRASQSISNNLHWYQQKSHESPRLLIIYASQSISGIPSRFSGSGSGTDFTLSINSVETEDFGVYFCQQSNSWPFTFGGGTKLEIKR
notes: Mouse variable regions on human IgG2 / kappa; also called chimeric antibody B1A8
For B1, the IC50 (as a rule, the concentration that inhibits the measured activity by half) in test [1] was 4.4 nM; in [4], 0.905 nM. In addition, in test [2], the response was half-maximal at 2 nM (EC50). Moreover, the Kd – broadly, the free concentration of one partner at which half of the binding sites on the other are occupied at equilibrium, for simple one-to-one binding – in test [3] turned out to be 1.62 nM.

B2: Chimeric B3D8 (antibody, human IgG2, kappa, V domains shown)
VH: EVQLVESGGDLVKSGGSLKLSCAASGFTFSRYGMSWVRQTPDKRLEWVASISSGGTYTSYPDSVKGRFTITRDSAKNTLYLQMSSLKSEDTAMYYCARRNFITSATDCYFDVWGAGTTVTVSS
VL: DTVLTQSPATLSVTPGASVSLSCRASQSISNNLHWYQQKSHESPRLLIIYASQSISGIPSRFSGSGSGTDFTLSINSVETEDFGVYFCQQSNSWPFTFGGGTKLEIKR
notes: Mouse variable regions on human IgG2 / kappa; also called chimeric antibody B3D8
Take B2: the concentration for half-maximal inhibition (IC50) in test [1] was 16.8 nM; in test [4], 3.17 nM. Also, the EC50 – broadly, the concentration giving half of the maximal effect – in test [2] stood at 3.17 nM. The molecule also showed a Kd in test [3] of 2.65 nM.

B3: humanized antibody huD1A1-V2 (antibody, human IgG4 S228P, kappa, V domains shown)
VH: EVQLVESGGGLVKPGGSLRLSCAASGFTFRNYAMSWVRQAPGKGLEWVSGISSGGTYTYYPDTVKGRFTISRDNAKNSLYLQMNSLRAEDTAVYYCARRDYGDVYEWYFDVWGKGTTVTVSS
VL: DIQMTQSPSSLSASVGDRVTITCKASQDVRTSIAWYQQKPGKAPKLLIYSASYRYTGVPSRFSGSGSGTDFTFTISSLQPEDIATYYCQQHYSSPWTFGGGTKVEIKR
notes: Human IgG4 / kappa
As for B3, the Kd in test [5] is less than 0.001 nM; in test [6], 0.134 nM; in test [11], 0.42 nM. Moreover, the dissociation rate constant (koff) (usually the rate constant with which the complex falls apart) in test [5] is less than 1e-07 s⁻¹. Besides, the kon (commonly the rate constant with which the complex forms) in test [5] is 112000 M⁻¹ s⁻¹. Further, the “IC50, RANKL-induced osteoclast differentiation of RAW264.7 cells (pNPP, OD405)” value in [7] is approximately 1.45 nM; in test [10] it was approximately 1.42 nM. For the same molecule, the IC50 in [8] is 0.154 nM; in test [12], 0.444 nM. The molecule also yielded an EC50 in test [9] of 0.2 nM.

B4: humanized antibody huD1A1-V3 (antibody, human IgG4 S228P, kappa, V domains shown)
VH: EVQLVESGGGLVKPGGSLRLSCAASGFTFRNYAMSWVRQAPGKGLEWVAGISSGGTYTYYPDTVKGRFTISRDNAKNSLYLQMNSLRAEDTAVYYCARRDYGDVYEWYFDVWGKGTTVTVSS
VL: DIQMTQSPSSLSASVGDRVTITCKASQDVRTSIAWYQQKPGKAPKLLIYSASYRYTGVPSRFSGSGSGTDFTFTISSLQPEDIATYYCQQHYSSPWTFGGGTKVEIKR
notes: Human IgG4 / kappa
For the molecule B4, in test [5], the dissociation constant (Kd) was less than 0.001 nM, the koff was less than 1e-07 s⁻¹ and the kon amounted to 106000 M⁻¹ s⁻¹.

B5: humanized antibody huD1A1-V1 (antibody, human IgG4 S228P, kappa, V domains shown)
VH: EVQLVESGGGLVKPGGSLRLSCAASGFTFRNYAMSWVRQAPGKGLEWVAGISSGGTYTYYPDTVKGRFTISRDNARNSLYLQMNSLRAEDTAVYYCARRDYGDVYEWYFDVWGTGTTVTVSS
VL: DIQMTQSPSSLSASVGDRVTITCKASQDVRTSIAWYQQKPGKAPKLLIYSASYRYTGVPSRFSGSGSGTDFTFTISSLQPEDIATYYCQQHYSSPWTFGGGTKVEIKR
notes: Human IgG4 / kappa
In test [5], B5 yielded a Kd of less than 0.001 nM, a koff of less than 1e-07 s⁻¹ and a kon of 124000 M⁻¹ s⁻¹.

B6: humanized antibody huD1A1-V6 (antibody, human IgG4 S228P, kappa, V domains shown)
VH: EVQLVESGGGLVKPGGSLRLSCAASGFTFRNYAMSWVRQAPGKGLEWVAGISSGGTYTYYPDTVKGRFTISRDNAKNSLYLQMNSLRAEDTAVYYCARRDYGDVYEWYFDVWGKGTTVTVSS
VL: DIQMTQSPSSLSASVGDRVTITCKASQDVRTSIAWYQQKPGKSPKLLIYSASYRYTGVPSRFSGSGSGTDFTFTISSLQPEDLATYYCQQHYSSPWTFGGGTKVEIKR
notes: Human IgG4 / kappa
For the molecule B6, in [5], the Kd was less than 0.001 nM, the koff is less than 1e-07 s⁻¹ and the kon came out at 115000 M⁻¹ s⁻¹.

B7: humanized antibody huD1A1-V4 (antibody, human IgG4 S228P, kappa, V domains shown)
VH: EVQLVESGGGLVKPGGSLRLSCAASGFTFRNYAMSWVRQAPGKGLEWVAGISSGGTYTYYPDTVKGRFTISRDNARNSLYLQMNSLRAEDTAVYYCARRDYGDVYEWYFDVWGTGTTVTVSS
VL: DIQMTQSPSSLSASVGDRVTITCKASQDVRTSIAWYQQKPGKSPKLLIYSASYRYTGVPSRFSGSGSGTDFTFTISSLQPEDLATYYCQQHYSSPWTFGGGTKVEIKR
notes: Human IgG4 / kappa
On to B7, for which, in test [5], the Kd is less than 0.001 nM, the koff is less than 1e-07 s⁻¹ and the kon came out at 101000 M⁻¹ s⁻¹.

B8: Chimeric D1E3 (antibody, human IgG2, kappa, V domains shown)
VH: EVQLVESGGGLVKPGGSLKLSCAASGFTFSRYAMSWVRQTPEKRLEWVAGISSGGTYTYYPDTVKGRFTISRDSAKNILYLQMGSLRSEDSAMYHCARRDYGDVYEWYFDVWGTGTTVTVSS
VL: DIVMTQSHKFMSASVGDRVSITCKASQGVRIAVAWYQQKPGQSPKLLIYSASYRYTGVPDRFTGSGSGTDFTFTISSVQAEDLAVYYCQQHHSSPWTFGGGTKLEIKR
notes: Mouse variable regions on human IgG2 / kappa; also called chimeric antibody D1E3
With B8, the IC50 came out at 0.258 nM in test [1] and 0.0505 nM in [4]. Moreover, the EC50 in test [2] turned out to be 0.183 nM. In test [3], this molecule returned a Kd of 0.612 nM.
